No end group written: not given here.
What was measured:
Assay in all cases: Kinase Profiling Assay
Format in all cases: biochemical
Conditions in all cases: peptide 100 μM
BrSK1(h) = molecular target: T1, BrSK1(h) (Homo sapiens, UniProt Q8TDC3)
T1 sequence (Q8TDC3 1-778): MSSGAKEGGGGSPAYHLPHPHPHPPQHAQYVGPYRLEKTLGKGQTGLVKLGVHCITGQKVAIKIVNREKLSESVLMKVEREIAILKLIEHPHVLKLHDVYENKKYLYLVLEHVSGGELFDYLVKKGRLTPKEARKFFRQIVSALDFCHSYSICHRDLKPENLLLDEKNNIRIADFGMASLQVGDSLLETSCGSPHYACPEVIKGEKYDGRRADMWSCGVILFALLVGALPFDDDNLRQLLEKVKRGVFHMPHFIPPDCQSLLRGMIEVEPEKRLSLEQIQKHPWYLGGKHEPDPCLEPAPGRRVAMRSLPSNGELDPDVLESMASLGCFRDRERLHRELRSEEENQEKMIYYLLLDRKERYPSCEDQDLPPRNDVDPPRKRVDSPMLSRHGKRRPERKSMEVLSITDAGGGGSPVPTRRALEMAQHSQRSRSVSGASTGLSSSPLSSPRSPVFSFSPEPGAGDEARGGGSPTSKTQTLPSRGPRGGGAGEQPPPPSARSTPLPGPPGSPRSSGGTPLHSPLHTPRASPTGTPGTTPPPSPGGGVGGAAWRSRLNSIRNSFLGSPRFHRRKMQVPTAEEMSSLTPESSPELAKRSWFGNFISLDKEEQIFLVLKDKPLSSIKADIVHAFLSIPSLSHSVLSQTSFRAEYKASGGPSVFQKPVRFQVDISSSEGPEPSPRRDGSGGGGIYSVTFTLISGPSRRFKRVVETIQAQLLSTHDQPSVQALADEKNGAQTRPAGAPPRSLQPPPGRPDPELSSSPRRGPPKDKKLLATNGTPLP
Procedure, shortened: (§1)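 In this 266-kinase specificity panel, every measurement was duplicated. Transfer of labeled phosphate from ATP to a cationic substrate was quantified after the substrate adhered to an anionic filter membrane and was scintillation-counted, then related to a full-activity control.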

CSK(h) = CSK(h) (Homo sapiens, UniProt P41240)
Chain of CSK(h) (P41240 whole entry): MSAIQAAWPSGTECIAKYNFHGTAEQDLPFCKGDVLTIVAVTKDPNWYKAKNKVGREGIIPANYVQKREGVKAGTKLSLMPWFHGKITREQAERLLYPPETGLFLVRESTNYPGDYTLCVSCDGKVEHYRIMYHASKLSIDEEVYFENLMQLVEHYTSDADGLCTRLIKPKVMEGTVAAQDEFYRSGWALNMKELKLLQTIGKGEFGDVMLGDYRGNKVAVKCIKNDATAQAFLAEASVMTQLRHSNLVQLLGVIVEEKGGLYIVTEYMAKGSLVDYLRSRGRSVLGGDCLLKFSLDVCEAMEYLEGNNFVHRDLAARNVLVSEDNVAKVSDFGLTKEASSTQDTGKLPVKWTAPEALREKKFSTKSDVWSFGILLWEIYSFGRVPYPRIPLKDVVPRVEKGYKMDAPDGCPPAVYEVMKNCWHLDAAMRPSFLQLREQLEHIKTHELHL
Procedure, shortened: as §1

MLK1(h) = molecular target: T2, MLK1(h) (Homo sapiens, UniProt P80192)
T2 construct: purchased Millipore
T2 sequence (P80192 whole entry): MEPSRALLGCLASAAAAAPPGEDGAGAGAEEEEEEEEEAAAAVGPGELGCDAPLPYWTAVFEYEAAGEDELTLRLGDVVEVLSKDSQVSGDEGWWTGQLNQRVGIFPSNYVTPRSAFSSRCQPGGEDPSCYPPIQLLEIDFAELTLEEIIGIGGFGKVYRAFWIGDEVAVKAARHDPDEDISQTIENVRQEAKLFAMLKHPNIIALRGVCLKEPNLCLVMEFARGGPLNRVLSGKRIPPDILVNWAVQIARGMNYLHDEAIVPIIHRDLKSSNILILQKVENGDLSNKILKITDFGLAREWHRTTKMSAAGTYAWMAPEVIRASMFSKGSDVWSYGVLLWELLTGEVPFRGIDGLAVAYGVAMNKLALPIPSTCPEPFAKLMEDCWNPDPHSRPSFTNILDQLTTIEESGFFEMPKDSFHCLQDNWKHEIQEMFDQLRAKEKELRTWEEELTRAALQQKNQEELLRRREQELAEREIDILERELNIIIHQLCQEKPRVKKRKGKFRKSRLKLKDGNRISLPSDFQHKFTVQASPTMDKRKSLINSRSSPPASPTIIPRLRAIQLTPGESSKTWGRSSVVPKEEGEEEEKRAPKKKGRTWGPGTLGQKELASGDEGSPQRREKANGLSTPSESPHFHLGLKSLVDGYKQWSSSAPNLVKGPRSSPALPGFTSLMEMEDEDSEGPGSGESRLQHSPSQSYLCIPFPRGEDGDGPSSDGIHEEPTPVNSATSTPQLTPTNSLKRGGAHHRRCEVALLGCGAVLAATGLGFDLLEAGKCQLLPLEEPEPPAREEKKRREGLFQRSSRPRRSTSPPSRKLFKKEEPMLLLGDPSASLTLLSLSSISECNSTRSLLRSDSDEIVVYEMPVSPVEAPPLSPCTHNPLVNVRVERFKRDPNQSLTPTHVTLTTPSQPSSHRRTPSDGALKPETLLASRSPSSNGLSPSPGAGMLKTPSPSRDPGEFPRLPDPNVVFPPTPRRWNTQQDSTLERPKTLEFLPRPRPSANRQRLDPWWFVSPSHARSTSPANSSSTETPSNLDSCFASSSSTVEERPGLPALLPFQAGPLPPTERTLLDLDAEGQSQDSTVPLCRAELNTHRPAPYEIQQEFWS
Procedure, shortened: as §1

MRCKβ(h) = molecular target: T3, MRCKβ(h) (Homo sapiens, UniProt Q9Y5S2)
T3 construct: purchased Millipore
T3 sequence (Q9Y5S2 whole entry): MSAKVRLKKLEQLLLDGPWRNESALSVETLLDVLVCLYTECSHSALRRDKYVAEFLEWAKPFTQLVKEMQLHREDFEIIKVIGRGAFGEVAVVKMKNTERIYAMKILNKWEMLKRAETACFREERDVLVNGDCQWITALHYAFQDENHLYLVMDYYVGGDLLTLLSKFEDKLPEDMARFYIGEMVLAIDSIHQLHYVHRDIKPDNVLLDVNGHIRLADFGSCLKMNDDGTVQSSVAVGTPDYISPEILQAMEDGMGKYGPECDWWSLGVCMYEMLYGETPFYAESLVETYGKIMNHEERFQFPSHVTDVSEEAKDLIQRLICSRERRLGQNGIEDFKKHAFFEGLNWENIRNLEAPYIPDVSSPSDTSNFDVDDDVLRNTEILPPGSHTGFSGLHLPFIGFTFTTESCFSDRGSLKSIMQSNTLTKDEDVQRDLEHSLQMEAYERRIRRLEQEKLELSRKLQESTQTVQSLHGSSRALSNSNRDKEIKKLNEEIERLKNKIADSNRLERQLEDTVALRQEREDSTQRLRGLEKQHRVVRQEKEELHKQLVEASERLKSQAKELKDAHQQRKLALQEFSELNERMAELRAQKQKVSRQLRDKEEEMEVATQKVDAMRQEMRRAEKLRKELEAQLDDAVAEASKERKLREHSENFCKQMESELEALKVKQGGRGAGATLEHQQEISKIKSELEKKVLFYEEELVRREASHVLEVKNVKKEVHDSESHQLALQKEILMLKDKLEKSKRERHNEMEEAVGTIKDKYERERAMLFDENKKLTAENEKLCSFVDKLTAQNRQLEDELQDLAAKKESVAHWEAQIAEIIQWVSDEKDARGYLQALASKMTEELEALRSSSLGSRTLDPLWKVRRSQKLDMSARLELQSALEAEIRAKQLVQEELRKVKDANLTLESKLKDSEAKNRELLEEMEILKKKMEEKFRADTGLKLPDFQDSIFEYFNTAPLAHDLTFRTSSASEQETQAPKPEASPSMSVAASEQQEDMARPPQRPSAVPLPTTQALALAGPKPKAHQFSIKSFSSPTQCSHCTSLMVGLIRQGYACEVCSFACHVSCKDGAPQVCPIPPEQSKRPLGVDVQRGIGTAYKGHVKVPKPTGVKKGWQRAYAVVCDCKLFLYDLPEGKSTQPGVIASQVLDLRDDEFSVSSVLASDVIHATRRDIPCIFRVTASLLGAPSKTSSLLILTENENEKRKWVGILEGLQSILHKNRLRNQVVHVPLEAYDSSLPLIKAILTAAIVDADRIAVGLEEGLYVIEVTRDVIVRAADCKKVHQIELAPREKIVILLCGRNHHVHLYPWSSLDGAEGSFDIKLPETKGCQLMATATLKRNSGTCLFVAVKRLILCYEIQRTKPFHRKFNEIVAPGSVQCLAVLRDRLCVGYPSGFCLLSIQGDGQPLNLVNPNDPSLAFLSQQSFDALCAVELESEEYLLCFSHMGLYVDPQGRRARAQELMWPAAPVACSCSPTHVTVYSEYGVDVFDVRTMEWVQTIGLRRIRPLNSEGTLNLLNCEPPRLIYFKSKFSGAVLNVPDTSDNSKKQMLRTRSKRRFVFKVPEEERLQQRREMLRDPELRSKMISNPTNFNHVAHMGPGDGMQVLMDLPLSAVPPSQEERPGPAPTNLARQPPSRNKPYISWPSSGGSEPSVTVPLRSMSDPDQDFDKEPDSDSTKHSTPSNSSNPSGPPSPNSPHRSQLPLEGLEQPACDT
Procedure, shortened: as §1

MST1(h) = molecular target: T4, MST1(h) (Homo sapiens, UniProt Q13043)
T4 construct: purchased Millipore
T4 sequence (Q13043 1-487): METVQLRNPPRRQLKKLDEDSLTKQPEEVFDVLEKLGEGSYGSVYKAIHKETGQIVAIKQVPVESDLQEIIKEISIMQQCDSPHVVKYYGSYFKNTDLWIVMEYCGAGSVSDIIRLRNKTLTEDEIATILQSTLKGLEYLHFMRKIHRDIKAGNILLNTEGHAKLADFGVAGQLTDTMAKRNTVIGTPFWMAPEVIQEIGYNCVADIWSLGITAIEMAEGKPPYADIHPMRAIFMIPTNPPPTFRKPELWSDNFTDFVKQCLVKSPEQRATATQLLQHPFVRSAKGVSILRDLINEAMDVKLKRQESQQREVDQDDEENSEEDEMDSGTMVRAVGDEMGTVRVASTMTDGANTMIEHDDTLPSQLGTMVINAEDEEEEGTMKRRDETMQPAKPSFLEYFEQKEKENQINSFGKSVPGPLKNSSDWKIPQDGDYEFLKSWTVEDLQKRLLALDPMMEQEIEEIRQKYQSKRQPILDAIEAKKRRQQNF
Procedure, shortened: as §1

PAK4(h) = molecular target: T5, PAK4(h) (Homo sapiens, UniProt O96013)
T5 construct: purchased Millipore
T5 sequence (O96013 whole entry): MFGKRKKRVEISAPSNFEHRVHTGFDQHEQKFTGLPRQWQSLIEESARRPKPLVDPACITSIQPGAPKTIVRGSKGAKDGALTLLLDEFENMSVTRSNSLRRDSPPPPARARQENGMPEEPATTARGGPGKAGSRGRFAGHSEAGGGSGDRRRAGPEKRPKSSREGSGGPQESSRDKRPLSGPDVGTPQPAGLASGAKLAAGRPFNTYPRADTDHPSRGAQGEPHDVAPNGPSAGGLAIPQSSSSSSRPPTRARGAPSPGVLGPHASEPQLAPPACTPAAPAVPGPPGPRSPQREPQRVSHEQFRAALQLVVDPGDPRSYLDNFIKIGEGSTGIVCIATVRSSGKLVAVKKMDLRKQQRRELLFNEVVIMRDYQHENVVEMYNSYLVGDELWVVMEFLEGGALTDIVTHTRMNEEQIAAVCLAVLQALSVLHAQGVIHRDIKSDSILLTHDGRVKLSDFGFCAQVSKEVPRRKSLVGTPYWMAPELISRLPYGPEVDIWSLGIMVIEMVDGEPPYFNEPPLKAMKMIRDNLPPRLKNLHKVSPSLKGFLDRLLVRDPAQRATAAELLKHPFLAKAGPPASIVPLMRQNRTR
Procedure, shortened: as §1

PDGFRα(h) = PDGFRα(h) (Homo sapiens, UniProt P16234)
Chain of PDGFRα(h) (P16234 24-1089): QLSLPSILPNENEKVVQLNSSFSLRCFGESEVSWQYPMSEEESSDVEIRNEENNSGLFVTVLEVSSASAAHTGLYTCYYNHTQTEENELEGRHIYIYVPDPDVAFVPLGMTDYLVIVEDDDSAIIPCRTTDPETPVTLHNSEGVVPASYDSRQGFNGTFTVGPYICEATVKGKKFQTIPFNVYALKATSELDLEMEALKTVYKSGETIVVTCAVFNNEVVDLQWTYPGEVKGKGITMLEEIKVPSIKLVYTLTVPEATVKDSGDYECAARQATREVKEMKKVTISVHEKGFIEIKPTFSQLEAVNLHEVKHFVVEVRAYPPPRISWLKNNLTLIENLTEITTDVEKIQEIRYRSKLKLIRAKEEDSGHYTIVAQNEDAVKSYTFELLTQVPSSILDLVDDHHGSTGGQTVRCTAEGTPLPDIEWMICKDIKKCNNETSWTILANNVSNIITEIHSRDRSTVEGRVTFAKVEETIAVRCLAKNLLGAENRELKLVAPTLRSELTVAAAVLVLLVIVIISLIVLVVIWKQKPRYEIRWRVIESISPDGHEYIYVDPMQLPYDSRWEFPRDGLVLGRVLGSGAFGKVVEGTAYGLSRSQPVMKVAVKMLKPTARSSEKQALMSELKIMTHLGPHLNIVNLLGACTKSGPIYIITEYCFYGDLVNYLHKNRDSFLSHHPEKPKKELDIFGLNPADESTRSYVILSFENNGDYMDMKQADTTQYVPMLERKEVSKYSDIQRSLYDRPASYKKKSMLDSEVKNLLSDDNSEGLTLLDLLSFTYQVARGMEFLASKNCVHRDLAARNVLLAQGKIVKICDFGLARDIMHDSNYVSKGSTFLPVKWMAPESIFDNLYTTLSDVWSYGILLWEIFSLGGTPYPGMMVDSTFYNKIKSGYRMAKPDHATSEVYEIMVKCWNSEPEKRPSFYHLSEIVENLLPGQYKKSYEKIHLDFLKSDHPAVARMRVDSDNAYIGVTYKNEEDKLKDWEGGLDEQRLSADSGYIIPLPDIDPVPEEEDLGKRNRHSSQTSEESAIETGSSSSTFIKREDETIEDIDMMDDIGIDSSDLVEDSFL
Procedure, shortened: as §1

PKCι(h) = molecular target: T6, PKCι(h) (Homo sapiens, UniProt P41743)
T6 sequence (P41743 1-596): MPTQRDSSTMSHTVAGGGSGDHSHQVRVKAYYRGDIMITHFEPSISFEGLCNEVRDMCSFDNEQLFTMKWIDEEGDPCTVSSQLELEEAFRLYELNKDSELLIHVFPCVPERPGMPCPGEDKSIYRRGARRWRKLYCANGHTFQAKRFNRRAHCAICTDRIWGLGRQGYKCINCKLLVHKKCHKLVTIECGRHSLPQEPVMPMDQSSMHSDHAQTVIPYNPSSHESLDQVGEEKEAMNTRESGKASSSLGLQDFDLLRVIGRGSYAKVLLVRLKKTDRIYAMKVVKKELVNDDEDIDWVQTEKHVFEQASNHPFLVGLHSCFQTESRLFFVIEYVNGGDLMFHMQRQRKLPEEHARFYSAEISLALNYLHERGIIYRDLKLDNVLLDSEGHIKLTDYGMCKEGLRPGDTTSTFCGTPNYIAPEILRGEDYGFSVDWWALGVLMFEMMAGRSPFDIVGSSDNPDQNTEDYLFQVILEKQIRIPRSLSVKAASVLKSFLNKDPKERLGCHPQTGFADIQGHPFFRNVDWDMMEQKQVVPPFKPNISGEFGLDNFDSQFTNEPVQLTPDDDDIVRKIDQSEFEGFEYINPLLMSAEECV
Procedure, shortened: as §1

STK33(h) = molecular target: T7, STK33(h) (Homo sapiens, UniProt Q9BYT3)
T7 construct: purchased Millipore
Procedure, shortened: as §1

Met(Y1248D)(h) = molecular target: T8, Met(Y1248D)(h) (Homo sapiens, UniProt P08581, Y1230D)
T8 construct: purchased Millipore
Procedure, shortened: as §1

Sequence	% activity (BrSK1(h)) [%]	% activity (CSK(h)) [%]	% activity (MLK1(h)) [%]	% activity (MRCKβ(h)) [%]	% activity (MST1(h)) [%]	% activity (PAK4(h)) [%]	% activity (PDGFRα(h)) [%]	% activity (PKCι(h)) [%]	% activity (STK33(h)) [%]	% activity (Met(Y1248D)(h)) [%]
FAKLAARLYRKALARQLGVAA [MMI-0300]	67	49	40	83	14	94	65	68	45	–
HRRIKAWLKKIKALARQLGVAA (Mammal) [MMI-0500]	72	2	43	-10	3	86	40	7	16	218
KAFAKLAARLYRKALARQLGVAA [MMI-0400]	76	16	33	71	6	89	40	46	52	31
YARAAARQARAKALARQLGVAA [MMI-0100]	100	–	77	–	–	92	–	110	99	87
YARAAARQARAKALNRQLGVA (Mammal) [MMI-0200]	93	33	84	–	72	98	108	97	98	118

— patent US20150258192A1, “COMPOSITIONS AND METHODS FOR PREVENTING OR TREATING CHRONIC LUNG ALLOGRAFT DYSFUNCTION (CLAD) AND IDIOPATHIC PULMONARY FIBROSIS (IPF)” (priority 2014, published 2015)
